Test results taken from paper PMC11257983 (2024).

B1: Myc-MEK [Drosophila] / Flag-CNK^2–549 [Drosophila] (parent)
chain 1: MSKNKLNLVLPPVNTEATVAAATVAPTPPFKTPSGTDTHSLLGKPKTSIDALTETLEGLDMGDTERKRIKMFLSQKEKIGELSDEDLEKLGELGSGNGGVVMKVRHTHTHLIMARKLIHLEVKPAIKKQILRELKVLHECNFPHIVGFYGAFYSDGEISICMEYMDGGSLDLILKRAGRIPESILGRITLAVLKGLSYLRDNHAIIHRDVKPSNILVNSSGEIKICDFGVSGQLIDSMANSFVGTRSYMSPERLQGTHYSVQSDIWSLGLSLVEMAIGMYPIPPPNTATLESIFADNAEESGQPTDEPRAMAIFELLDYIVNEPPPKLEHKIFSTEFKDFVDICLKKQPDERADLKTLLSHPWIRKAELEEVDISGWVCKTMDLPPSTPKRNTSPN
chain 2: AYINIAEWTPDQVTDWIKGLDESMKGYLYEFSKQEIGGRALLNIRPYELENLGMLRIGHQEIVLEAVENLRNFHYHLKNDNLQFMALHVATAAKNLHRELARNHAESTKIDTRILHDITRTIATLKPLVGSLERTPFRKQEMYREYCGNVLKCGLELATIAHRDRFALQPVPAIRQSAERLENLANFVIQDISDPMVLQPASLNLVTLKKRESELGFNIESSYNGIHRVTDIKYNSPAHNSGKIEDGDEIVQINYQTVVGWQHRTVLEHLREALPDVVLTVKKRPKHTKMFGQIYMQPYRLPSKKRNMAARWAAQMPSPRAAFLTLDTEQLATGGTGSAVPDPSKSLSSEKREVLTKANPVSSASDSDSSCSDIPTPTDPKLAAREIRLYYPKPRALLQRRNTICGCEYLSLKNSDLVVPSWHERKPGIGSPTNCDPGSPSIRDKSISFGYGLEMAARPTTCIGIAGDTSTDKARRMFHEARKLKQLTEDSQREFLVDRYKPGVSKVVRFDAKEDYVMKNEKFICNVENTILETFEPIPFADEGDEDA
B2: V5-KSR mutant KSR:E926R [Drosophila] / Flag-CNK^2–549 [Drosophila] (parent)
chain 1: MSSNNNAPASAPDTGSTNANDPISGSLSVDSNLVIIQDMIDLSANHLEGLRTQCAISSTLTQQEIRCLESKLVRYFSELLLAKMRLNERIPANGLVPHTTGNELRQWLRVVGLSQGTLTACLARLTTLEQSLRLSDEEIRQLLADSPSQREEEELRRLTRAMQNLRKCMESLESGTAASNNDPEQWHWDSWDRPTHIHRGSVGNIGLGNNSTASPRTHHRQHGVKGKNSALANSTNFKSGRQSPSATEELNSTQGSQLTLTLTPSPPNSPFTPSSGLSSSLNGTPQRSRGTPPPARKHQTLLSQSHVQVDGEQLARNRLPTDPSPDSHSSTSSDIFVDPNTNASSGGSSSNVLMVPCSPGVGHVGMGHAIKHRFTKALGFMATCTLCQKQVFHRWMKCTDCKYICHKSCAPHVPPSCGLPREYVDEFRHIKEQGGYASLPHVHGAAKGSPLVKKSTLGKPLHQQHGDSSSPSSSCTSSTPSSPALFQQRERELDQAGSSSSANLLPTPSLGKHQPSQFNFPNVTVTSSGGSGGVSLISNEPVPEQFPTAPATANGGLDSLVSSSNGHMSSLIGSQTSNASTAATLTGSLVNSTTTTSTCSFFPRKLSTAGVDKRTPFTSEYTDTHKSNDSDKTVSLSGSASTDSDRTPVRVDSTEDGDSGQWRQNSISLKEWDIPYGDLLLLERIGQGRFGTVHRALWHGDVAVKLLNEDYLQDEHMLETFRSEVANFKNTRHENLVLFMGACMNPPYLAIVTSLCKGNTLYTYIHQRREKFAMNRTLLIAQQIAQGMGYLHAREIIHKDLRTKNIFIENGKVIITDFGLFSSTKLLYCDMGLGVPHNWLCYLAPELIRALQPEKPRGECLEFTPYSDVYSFGTVWYELICGEFTFKDQPAESIIWQVGRGMKQSLANLQSGRDVKDLLMLCWTYEKEHRPQFARLLSLLEHLPKKRLARSPSHPVNLSRSAESVF
chain 2: B1 chain 2

Variants of: B1
Assay: GST pull-down, immunoblot quantification
Conditions: with Flag-CNK^2–549 [Drosophila]; S2 cells; Flag-CNK2–549, V5-KSR, Myc-MEK, GST-HYP co-expressed; captured via GST-HYP; anti-Myc (MEK) blot; parent: 1

With chain 1 E323R the ratio to parent was 0.56.

Same assay, conditions: with Flag-CNK^2–549 [Drosophila]; S2 cells; Flag-CNK2–549, V5-KSR, Myc-MEK, GST-HYP co-expressed; captured via GST-HYP; anti-V5 (KSR) blot; parent: 1

For chain 1 E323R, the ratio to parent was 0.66.

Same assay, conditions: with Myc-MEK [Drosophila], S2 cells, Flag-CNK2–549, V5-KSR, GST-HYP co-expressed, captured via GST-HYP, anti-Myc (MEK) blot, parent: 1

Compared with chain 2 R45F, chain 2 N81W is lower in ratio to parent: 1.01 for the first, 0.05 for the second.

Going from chain 2 Q83E to chain 2 R98E, the ratio to parent rises from 0.04 to 1.12.

First: chain 2 N81E
Second: chain 2 Y75R
The ratio to parent of the first is lower: 0.27 for the first, 0.68 for the second.

chain 2 N95E was tested, and the ratio to parent was 0.94.

Same assay, conditions: with Myc-MEK [Drosophila]; S2 cells; GST-HYP + RRKM (Ha-RASV12, Pyo-RAF, V5-KSR, Myc-MEK) co-expressed; captured via GST-HYP; anti-MEK blot; parent: 1

Going from chain 2 M196E to chain 2 S193A, the ratio to parent rises from 0.28 to 1.01.

Compared with chain 2 Q199A, chain 2 V197E is lower in ratio to parent: 0.68 for the first, 0.04 for the second.

chain 2 D194K gave a ratio to parent of 0.05.

Same assay, conditions: with Myc-MEK [Drosophila]; S2 cells; GST-HYP, V5-KSR, Myc-MEK co-expressed; captured via GST-HYP; anti-MEK blot; parent: 1

First: chain 2 M196E
Second: chain 2 S193A
The ratio to parent of the first is lower: 0.23 for the first, 1.09 for the second.

First: chain 2 Q199A
Second: chain 2 V197E
The ratio to parent of the first is higher: 0.62 for the first, 0.03 for the second.

First: chain 2 D194K
Second: chain 2 D194K V197E
The ratio to parent of the first is higher: 0.05 for the first, 0.02 for the second.

Same assay, conditions: with Myc-MEK [Drosophila]; S2 cells; GST-HYP + RRKM co-expressed; captured via GST-HYP; anti-Myc (MEK) blot; parent: 1

Compared with chain 2 E249R, chain 2 F73R E249R is lower in ratio to parent: 0.76 for the first, 0.13 for the second.

First: chain 2 F73R V251R
Second: chain 2 F73R
The ratio to parent of the first is lower: 0.5 for the first, 0.82 for the second.

First: chain 2 A66F F73R
Second: chain 2 D80R K282D
The ratio to parent of the first is higher: 0.48 for the first, 0.34 for the second.

Going from chain 2 D80R to chain 2 E249R V251R, the ratio to parent falls from 0.9 to 0.06.

Compared with chain 2 K282D, chain 2 A66F is higher in ratio to parent: 0.1 for the first, 1.08 for the second.

chain 2 V251R was tested, and the ratio to parent was 0.78.

Same assay, conditions: with Myc-MEK [Drosophila]; S2 cells; GST-HYP, Flag-CNK2–549 + RRKM co-expressed; captured via GST-HYP; anti-Myc (MEK) blot; parent: 1

Compared with chain 2 L151D, chain 2 I122D is higher in ratio to parent: 0.05 for the first, 0.77 for the second.

chain 2 I122D L151D gave a ratio to parent of 0.01.

Variants of: B2
Assay: GST pull-down, immunoblot quantification
Conditions: with Flag-CNK^2–549 [Drosophila]; S2 cells; Flag-CNK2–549, GST-HYP + RRM (Ha-RASV12, Pyo-RAF, Myc-MEK) co-expressed; captured via GST-HYP; anti-Myc (MEK) blot; parent: 1

Going from chain 1 E926R to chain 1 K903D, the ratio to parent falls from 1.23 to 0.04.

Going from chain 1 M902D to chain 1 Y925D, the ratio to parent rises from 0.05 to 0.07.

Same assay, conditions: with Flag-CNK^2–549 [Drosophila]; S2 cells; Flag-CNK2–549, GST-HYP + RRM (Ha-RASV12, Pyo-RAF, Myc-MEK) co-expressed; captured via GST-HYP; anti-V5 (KSR) blot; parent: 1

Going from chain 1 E926R to chain 1 K903D, the ratio to parent falls from 1.07 to 0.07.

Compared with chain 1 M902D, chain 1 Y925D is higher in ratio to parent: 0.07 for the first, 0.12 for the second.

Same assay, conditions: with Flag-CNK^2–549 [Drosophila]; S2 cells; Flag-CNK2–549, V5-KSR, Myc-MEK, GST-HYP co-expressed; captured via GST-HYP; anti-Myc (MEK) blot; parent: 1

Work on chain 1 R913E yielded a ratio to parent of 0.83.

Same assay, conditions: with Flag-CNK^2–549 [Drosophila]; S2 cells; Flag-CNK2–549, V5-KSR, Myc-MEK, GST-HYP co-expressed; captured via GST-HYP; anti-V5 (KSR) blot; parent: 1

chain 1 R913E gave a ratio to parent of 0.75.
